Tests used:
[1] = target: monkey integrins on CV-1 and RF/6A cells; test: flow cytometry on CV-1 (monkey) cells, detection with an antibody against the Fc domain [panel CV-1 (monkey]
[2] = target: monkey integrins on CV-1 and RF/6A cells; test: flow cytometry on RF/6A (monkey) cells, bound protein detected with an antibody against the Fc domain; cell of the drawn KD table, column RF/6A [KD table]
[3] = target: rat integrins on Rat2 cells (rat fibroblasts); test: flow cytometry on Rat2 (rat fibroblast) cells, detection with an antibody against the Fc domain; cell of the drawn KD table, column Rat2 [KD table]
[4] = target: rabbit integrins on SIRC cells (rabbit corneal cells); test: flow cytometry on SIRC (rabbit cornea) cells, detection with an antibody against the Fc domain; cell of the drawn KD table, column SIRC [KD table]
[5] = target: monkey integrins on CV-1 and RF/6A cells; test: flow cytometry on CV-1 (monkey) cells, bound protein detected with an antibody against the Fc domain; cell of the drawn KD table, column CV-1 [KD table]
[6] = target: human integrins on U87MG cells (human tumor cells); test: flow cytometry on U87MG (human) cells, bound protein detected with an antibody against the Fc domain; cell of the drawn KD table, column U87MG [KD table]

| Molecule | EC50 (read off the curve) [1] | Kd [2] | Kd [3] | Kd [4] | Kd [5] | Kd [6] |
| --- | --- | --- | --- | --- | --- | --- |
| NOD201 (2.5F peptide fused to human IgG1 Fc; no linker) (Fc fusion) | 2 nM | 0.5 nM | 1.01 nM | 0.288 nM | 1.5 nM |  |
| NOD201M (NOD201 with murine Fc domain; no linker) (Fc fusion) GCPRPRGDNPPLTCSQDSDCLAGCVCGPNGFCGEPRVPITQNPCPPLKECPPCAAPDLLGGPSVFIFPPKIKDVLMISLSPMVTCVVVDVSEDDPDVQISWFVNNVEVHTAQTQTHREDYNSTLRVVSALPIQHQDWMSGKEFKCKVNNRALPSPIEKTISKPRGPVRAPQVYVLPPPAEEMTKKEFSLTCMITGFLPAEIAVDWTSNGRTEQNYKNTATVLDSDGSYFMYSKLRVQKSTWERGSLFACSVVHEGLHNHLTTKTISRSLG |  |  |  |  |  | 0.7 nM |
